Results from the DeepSol protein solubility set.

assay: soluble on expression in E. coli; label from the status in PepcDB or PDB records

Sequence | soluble on expression in E. coli
MKKIAIIGGGIIGMTLANYLDPQKFDITVYDEGLGQATKASAGIISPWLSKRRNKKWYQLAREGAALFPKLVKDFQLTEDIYRQSGTVILRPAAALADLAHLAEERKQTAPEIGEITMLSAVQTAKFLPLLKETPSLFISGGGRLDGPAYLNHLQKRAEAKGVTFCSQRAHFRQLNQGWEIVTNSEKKSVDFLALTPGPHLKELLTTLNLSVDIRPQKGQLLVFETPFTNSQQWPVAMLDGEADLIPFNQGKILLGATHENEQAWDLEETVSAFQQLTSGTAPFLKEAEQLFKQPMHYRVGTRAYTSDFAPFFGPLPEMPHLVVASGLGSSGLTTGPFIGYQLAEYFNTGAFKGELYQKPLSQYVKNNPSLLEHHHHHH | soluble
HNGDLYFSNVMLQDMQTDYSCNARFHFTHTIQQKNPFTLKVLTTRGVAERTPSFMYPQGTASSQMVLRGMDLLLECIASGVPTPDIAWYKKGGDLPSDKAKFENFNKALRITNVSEEDSGEYFCLASNKMGSIRHTISVRVKAAPYWLDEPKNLILAPGEDGRLVCRANGNPKPTVQWMVNGEPLQSAPPNPNREVAGDTIIFRDTQISSRAVYQCNTSNEHGYLLANAFVSVLDVPPRMLSPRNQLIRVILYNRTRLDCPFFGSPIPTLRWFKNGQGSNLDGGNYHVYENGSLEIKMIRKEDQGIYTCVATNILGKAENQVRLEVKDPTRIYRMPEDQVARRGTTVQLECRVKHDPSLKLTVSWLKDDEPLYIGNRMKKEDDSLTIFGVAERDQGSYTCVASTELDQDLAKAYLTVLGRPDRPRDLELTDLAERSVRLTWIPGDANNSPITDYVVQFEEDQFQPGVWHDHSKYPGSVNSAVLRLSPYVNYQFRVIAINEVGSSHPSLPSERYRTSGAPPESNPGDVKGEGTRKNNMEITWTPMNATSAFGPNLRYIVKWRRRETREAWNNVTVWGSRYVVGQTPVYVPYEIRVQAENDFGKGPEPESVIGYSGEDYPRAAPTEVKVRVMNSTAISLQWNRVYSDTVQGQLREYRAYYWRESSLLKNLWVSQKRQQASFPGDRLRGVVSRLFPYSNYKLEMVVVNGRGDGPRSETKEFTTPEGVPSAPRRFRVRQPNLETINLEWDHPEHPNGIMIGYTLKYVAFNGTKVGKQIVENFSPNQTKFTVQRTDPVSRYRFTLSARTQVGSGEAVTEESPAPPNEGRCMAAAPGVKGPS | soluble
MIDISHGHTSCSSHRSSSLPSVFWKIHLSPPLPSFKFKKSTESTQRQTIPKFSSPASSLAPSTPLWSLSSCLLVSEVSFWPGAGFLYNDLVCLDREDHCLSNSASHSCG | soluble
MSLAREDYAAQVALLVRVLPYVAKEEIFALKGGTAINLFYRDLPRLSVDIDLTYLPVKDRAESLVEINDAMDRIAAAIEGGITGAKAQRIAGGGGGATRALARLGTAEIKIETSPVTRGVVHDPEQREVSEAVEEEFGYATMNIVSFEDLFGGKLHAALDRQHPRDLYDVKLLYENEGFTDELFRTFLIYVASSPRPPHELLNPNLIDLDQPYAREFEGMTKEAVDLAELIATRDRLIGDIQSRLNDDAKRFLRTLHEGDPDFDAIDRPQGAGLPAVRWKLINVNNPNKNAQAAFTGAVVELLPFCGEGHHHHHH | not soluble
MSVTQIDLDDEALADVMRIAAVHTKKEAVNLAMRDYVERFRRIEALARSRE | soluble
MGSDKIHHHHHHMKILFVAPGWPRGRLWGELGFKFPSLALAALAAVTPPEWDAALCDESRETIDFNAPCDLVAITAMTPQAPRAYEIAAGFRARGKTVVMGGFHASNLPDEALGHVDAVVVGEGELSWPLLLADFQAGRLQRLYRSPGLLPMASIPVARREIFAGKGYLLTNTLQTTRGCPFDCEFCSVTAFYGRKYRERPVEAVLAELETLRKANSFAFFVDDNLVADRRYALPLFRGMKGMGFKWLSHAPIDFAGDEELMRAAGESGCIGMFVGFESLDQEALAAMGKVTNSSSAFLDQARKFRDHGIGILGSFVLGYDGDTPDSFGRILRFCEEARIEAAIFPILTPYPGTAVRRRLEAEGRITSNDWRDYDMGHVTFRPTGMTARELQDGHDWLNRSFYSFGSMWRRIGKLHRSVQVFGPMNLGFRSAIRKSDKTKAS | not soluble
MIDQFKFLNPQALISIFGKIPKFEESELLDVRLKRDGPTLVIQLMTKENVENKPKRWNKWDVIYVEISFFTIHNLTIKGLGTENIIDYFEINTIEEEGLLKIKCKNQMLVECSFEWAKVEGVTPGLIGLP | not soluble
MGSDKIHHHHHHMNNTTENGQYFVAAFEPGAEHPALPTWASCNDNGAELALSAPSTVSKKPLTDVPGAFQLLNVLSADECQRLISVSETMGFLPDAAVSLPRNVRHNDSLTWVVDNTTERLIWDRIAGVMTDDLGIFEGKAALGLNNRFRFYRYNEGDYFKPHSDGSWPGSQVIDGELVRDAFGDRYSQLTFLILLTEDFEGGATRFLVNADKPNLPAKHGDNMRQVDVRTPAGSVLCFPHGMHPLHCIHSSEPIFSGVKYIIRTDVLFEL | not soluble
MNKKNKFFDIYLELEQDITSGVYPAGTLLPSENVLAKRFSVSRETIRKALVLLLENGCIQKLQGKGSIVIDRERYSFPVSGLTSFKELQKSEQMNATTEVIRNEETTLPDRIADFAGLPHGSNCLAILRVRYLEGEATILDYDYLLDKTEPIANEILEDSLYQYLENEKGYEISYAQKEITVEPLNAEDKKYLALHGDTHVVVVKSTVFLKDTTLFQYTESRHRLDKFRFIDFARRR | not soluble
ILAVLFANSVGNVLIERFNGVPAEERLHWRSFLVKLGADNLKGVKNEELLVACHKSVYIVYTMLGDVSIFLVGKDEYDELALAETIYIITAAVKDVCGKPPTERVFLDKYGRICLCLDEIVW | not soluble
MAKKTLPAGVKSPPYIFSPIPFLGHAIAFGKSPIEFLENAYEKYGPVFSFTMVGKTFTYLLGSDAAALLFNSKNEDLNAEDVYSRLTTPVFGKGVAYDVPNPVFLEQKKMLKSGLNIAHFKQHVSIIEKETKEYFESWGESGEKNVFEALSELIILTASHCLHGKEIRSQLNEKVAQLYADLDGGFSHAAWLLPGWLPLPSFRRRDRAHREIKDIFYKAIQKRRQSQEKIDDILQTLLDATYKDGRPLTDDEVAGMLIGLLLAGQHTSSTTSAWMGFFLARDKTLQKKCYLEQKTVCGENLPPLTYDQLKDLNLLDRCIKETLRLRPPIMIMMRMARTPQTVAGYTIPPGHQVCVSPTVNQRLKDSWVERLDFNPDRYLQDNPASGEKFAYVPFGAGRHRCIGENFAYVQIKTIWSTMLRLYEFDLIDGYFPTVNYTTMIHTPENPVIRYKRRSTHHHHHH | soluble
AHHHHHHGSLIVVRPGRKKNELEAFIIENPPEKLSQRRNLKADRVVRLIMRDNRLFKALEGSQYLNPKEVERALRNSRIVLVNANEWEEYFKKRLMNKRVEKADICRLCLLNGKITVLTEGNRIRYRDEYICESCAEEELKRELRFRFNSIGMLEQAKKLLERFRDLDKVISIFDPSFDPTKHPEITKWDELKAKHIRVEKMHIDELNIPEEFKKVLKAEGINELLPVQVLAIKNGLLEGENLLVVSATASGKTLIGELAGIPKALKGKKMLFLVPLVALANQKYEDFKRRYSKLGLKVAIRVGMSRIKTKEEPIVLDTGTDAHIIVGTYEGIDYLLRAGKKIGNVGTVVIDEIHMLDDEERGARLDGLIARLRKLYSNAQFIGLSATVGNPQELARKLGMKLVLYDERPVDLERHLIIARNESEKWRYIAKLCKAEAMRKSEKGFKGQTIVFTFSRRRCHELASFLTGQGLKAKAYHSGLPYVQRKLTEMEFQAQMIDVVVTTAALGAGVDFPASQVIFESLAMGNKWITVREFHQMLGRAGRPQYHEKGKVYIIVEPGKKYSAQMEGTEDEVALKLLTSPIEPVIVEWSDEFEEDNVLAHACVFNRLKVIEEVQSLCLGANQSAKNVLEKLMEKGLVKIYGDKVEATPYGRAVSMSFLLPREAEFIRDNLESTDPIEIAIKLLPFENVYLPGSLQREIESAVRGKISSNIFSSSFASVLEELDKIIPEISPNAAERLFLIYQDFFNCPEQDCTEFAMERIGRKIIDLRREGYEPSKISEHFRKVYALILYPGDVFTWLDGIVRKLEAIERIARVFNKRRVVEDTIRVRREIEEGKILKGERR | not soluble
MESNDSGGVAAKHGFLFQDCVAAYHVTRMLRDKTIRSVRCEVTDDIDIVSDGYIDFVQVKSTGKTRWNISDIVQNSKGADKKTIPCSSILHKSMQCESDLSLGRRYSIVTEEKVNKTLEYLTISPNARLDKPGRQELIDDLNKRTDNFLTDSGISVSDWIDAATWEVFSSLRELELLGIKNIRLASQDLHGVILSSETVAEDIWCRILDTVTRKGEHSRRIHSADDKSYLRPDLLEWFKQRVEDDQSRSGRKIYVKRDLPHILTPFRAPMASVCAKRKGQVLHQQYSLKKYRYKHIADNVCQWLDEVFLRPKEMSDIHKLTFIEKRERLKNSVFKSLHDVSEFLGRVLLHATIRQHHESQPIPCMLYVEKAGAEKILENVHIVRRDPEGDQLWIGFSELVTDINIAVRLPEIRDQLYEDISDCIDTARKKILDIKDDNYLLRHDIDEILDGSQPFDAHLDRFTFVLFVGYDSNLLTEPETPGFEDDLEKETAVLFEKFAADLIEDSPFANLCIHVFIYPAPSLERLTQLVDEKVREVV | soluble
MILNIRKMGNSQGVILPKSLLGQIGAVDSLAVTVEKGNIILSCPTVRRGWAEAAAMLVETEQEHFFSEIENEADKEWIW | not soluble
MADTVKLFPENLVTYKLLGEPDGPHYAHYDLVGGRLVVSKKCVSEAPVKKDAISV | not soluble
MAHHHHHHMPLFCSSTTFMLKVRRAAVKTWKCFAFIAFVSSSMRYISCGFTADDNTKSKSCPFDALGISNNSDMTTVKAAYRSKCQTEHPDVGGTEEGFRRIRWAYESCCEKLVKTGPRSNSEFDGSSHESSSKQKDDEGDYTHSYYRYKSKDERYHEQRQMFYYLFSSVETRNDIDNLLSKALRSHCFDAIDVSEPLRLSLRNYHRVTGYGEHHLTSCFAAMEHWEEYTQRRADVTQYHIMLILYTDGPKPGLTAQLISEGVEAIMEQMCVKGIEYDDWSLTLAHKAYRVCPYPST | not soluble
MIGVGKMKQYSNVLDKPLSKGKQEVSLTAFAFLFSELVQYNQTQVDNIAELERRLEDAGYAVGSRVLELLCNREKGNRRETRLLGILSFVHSTVWKVLFGKVADSLEKGTEHEDEYMISEKELLVNRFISIPKDMGTFNCGAFVAGIVKGVLDNAGFPAVVTAHFVPIEGQQRPRTTILIKFADEVLKREARLSQ | soluble
MIRGWLAEGERMKETSYYSYVVGELPKGCQYCVRGEKLVLFVTGVCPRNCFYCPLSPWRRKDVAYANERPIRKIEDIIEEAKIQEARGAGVTGGDPLARLNRTVEYIRTLKEEFGKKFHIHLYTTGILADKRALSMLYDAGLDEIRFHPDLFEPSSKFLNREIENLKNAFDFDWDVGGEVPAVPGFGDRIKWFAEILDKFGGKFLNINELEYSETNLSNILNRGFKLAGENSFAIKGSLELGLEILEWGEKNTSLYYHLCTAKLKDAVQLRNRLRRMAKNVAKPYMEITEDGTLRFGIAEYEDLEELYKFLVEEAEVPKEWLYINWEKKRIEMPVEVAEELAEAIEGDVKFYIVEEYPTWDRIEVERIPLN | not soluble
MQDIHFRRHYVRHLPKEVSQNDIIKALASPLINDGMVVSDFADHVITREQNFPTGLPVEPVGVAIPHTDHKYVRQNAISVGILAEPVNFEDMGGEPDPVPVRVVFMLALGESNKQLNVLGWIMDVIQDEDFMQQLLVMNDDEIYQSIYTRISERGEV | soluble
MGSDKIHHHHHHMCVKKGESSITSLVSAFGRAYHSEFDSPKIFDDYVAKEFISPKERSDIETNMVQGIHFFNTDIAEQFQDNPKEILKWITQVQLSPTPLARAAYCERVLLHEITLGAKQYVILGAGLDTFSFRHRELENKIEIFEVDHPSTQQFKKERIKEAELEVPNNLHFVSMDFTKGFSYEQLRNEGFEHKKTFFSLLGVSYYLTKEELASLIECLFEMVPEGSSIVFDYPDENLFTEKGLSNRVENMVKMAAVGGEPMKSCYSYAEMEALLEKAGLLIYEHLSPEDINAFYFEGRNDYLKAFETVHYVHAVKK | not soluble
